Assay [1] concerns the target cynomolgus (cyno) MS4A6A (cynomolgus). Description: flow cytometry, hybridoma supernatant, HEK293 transfected with cyno MS4A6A over parental HEK293; Screen 1. (In general: Flow cytometry measures light scatter and fluorescence of single cells or particles in a stream.)
For assay [2] the target is unchanged. The assay is described as follows: flow cytometry, hybridoma supernatant, HEK293 transfected with cyno MS4A6A over parental HEK293; Screen 2.

cynomolgus (cyno) MS4A6A (cynomolgus), sequence (Q9H2W1 other isoform, or with tags, fused parts or gaps): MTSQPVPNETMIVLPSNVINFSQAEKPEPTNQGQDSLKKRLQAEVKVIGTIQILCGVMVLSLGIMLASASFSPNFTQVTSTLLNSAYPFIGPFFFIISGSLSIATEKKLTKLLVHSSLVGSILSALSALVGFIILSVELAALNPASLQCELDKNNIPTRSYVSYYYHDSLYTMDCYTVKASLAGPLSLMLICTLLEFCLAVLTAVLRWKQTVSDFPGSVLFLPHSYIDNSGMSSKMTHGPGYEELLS

B1: 6A-20 (antibody, V domains shown)
VH: EVQLQQSGPELVKPGASVKMSCKASGYTFTDYFMKWVKQSHGKSLEWIGDINPKNGDTFYNQKFKGKATLTVDKSSSTAYMQLNSLTSEDSAVYYCARPGYFDVWGAGTTVTVSS
VL: DIVMTQAAPSVPVTPGESVSISCRSSKSLLHSDGNTYLYWFLQRPGQSPQLLIYRMSNLAPGVPDRFSGSGSGTAFTLRISRVEAEDVGVYYCMQHLEFPFIFGAGTKLELK
As for B1, the ratio of APC MFI on MS4A6A+/HEK parental cells was found to be 2.7 in assay [1] and 0.2 in assay [2].

These data come from patent US20220380455A1.
